T1: human GIP receptor (human) (UniProt P48546)
T1 sequence (looked up): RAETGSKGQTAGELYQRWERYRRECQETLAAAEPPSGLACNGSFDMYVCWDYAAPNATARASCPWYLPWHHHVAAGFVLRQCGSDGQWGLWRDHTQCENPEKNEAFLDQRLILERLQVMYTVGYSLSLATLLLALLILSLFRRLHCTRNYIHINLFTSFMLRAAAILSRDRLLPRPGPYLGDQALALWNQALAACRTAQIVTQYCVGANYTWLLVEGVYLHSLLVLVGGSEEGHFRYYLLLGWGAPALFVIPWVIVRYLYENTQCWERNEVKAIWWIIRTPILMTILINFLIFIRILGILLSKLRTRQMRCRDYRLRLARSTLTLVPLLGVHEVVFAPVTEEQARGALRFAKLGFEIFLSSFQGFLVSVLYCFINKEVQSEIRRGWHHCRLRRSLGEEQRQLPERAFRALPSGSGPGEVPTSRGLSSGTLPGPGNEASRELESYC


How the values were obtained:
Assay in all cases: cell-based or functional assay
[1] = molecular target: human glucagon receptor (human) (UniProt P47871)
Chain of human glucagon receptor (human) (P47871 26-477): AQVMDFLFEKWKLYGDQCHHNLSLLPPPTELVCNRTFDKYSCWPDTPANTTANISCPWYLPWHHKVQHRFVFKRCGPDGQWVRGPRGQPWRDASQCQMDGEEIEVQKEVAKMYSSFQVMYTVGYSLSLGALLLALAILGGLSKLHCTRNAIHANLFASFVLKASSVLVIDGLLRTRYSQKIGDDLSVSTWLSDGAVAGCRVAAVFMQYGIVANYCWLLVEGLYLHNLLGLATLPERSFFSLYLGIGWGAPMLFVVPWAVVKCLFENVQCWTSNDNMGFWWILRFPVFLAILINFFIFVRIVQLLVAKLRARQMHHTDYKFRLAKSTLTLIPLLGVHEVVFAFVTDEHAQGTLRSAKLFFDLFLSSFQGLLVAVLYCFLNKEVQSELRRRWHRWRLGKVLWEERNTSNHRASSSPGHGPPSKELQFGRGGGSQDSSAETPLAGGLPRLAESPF

hGLP-1R = hGLP-1R (Homo sapiens, UniProt P43220)
Chain of hGLP-1R (P43220 24-463): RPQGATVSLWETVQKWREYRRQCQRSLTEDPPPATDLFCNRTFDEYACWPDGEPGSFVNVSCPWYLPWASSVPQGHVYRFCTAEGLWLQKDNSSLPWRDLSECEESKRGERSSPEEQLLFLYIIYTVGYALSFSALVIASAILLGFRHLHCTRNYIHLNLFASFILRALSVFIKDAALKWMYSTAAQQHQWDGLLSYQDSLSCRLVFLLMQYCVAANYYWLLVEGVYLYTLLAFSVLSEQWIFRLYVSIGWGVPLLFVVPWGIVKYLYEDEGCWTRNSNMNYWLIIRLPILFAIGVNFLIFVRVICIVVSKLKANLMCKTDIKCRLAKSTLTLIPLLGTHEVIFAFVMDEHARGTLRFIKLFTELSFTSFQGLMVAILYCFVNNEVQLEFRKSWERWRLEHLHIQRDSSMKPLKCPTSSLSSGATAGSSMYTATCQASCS

[2] = molecular target: T1, human GIP receptor (human)

Binder	Relative cAMP EC50 [1]	cAMP Rel EC50 (1% HSA) [1]	Relative cAMP EC50 (hGLP-1R)	cAMP Rel EC50 (1% HSA) (hGLP-1R)	Relative cAMP EC50 [2]	cAMP Rel EC50 (1% HSA) [2]	cAMP Rel EC50, nM (1% HSA) [1]	cAMP Rel EC50, nM (1% HSA) (hGLP-1R)	cAMP Rel EC50, nM (1% HSA) [2]	cAMP Rel EC50, nM (in the presence of 1% HSA) [1]	cAMP Rel EC50, nM (in the presence of 1% HSA) (hGLP-1R)	cAMP Rel EC50, nM (in the presence of 1% HSA) [2]	cAMP Rel EC50 [1]	cAMP Rel EC50 (hGLP-1R)	cAMP Rel EC50 [2]
YXQGTFTSDXSKXLDKKAQXAFIEYLIEXGPSSGAPPPSGSE (AEEA-γGlu-C18 diacid on Lys; non-natural residues; amide; synthetic construct; SITE 2: note = 2-Aminoisobutyric Acid; SITE 10: note = 3-(4-Pyridyl)-L-alanine; SITE 13: note = alpha-methyl-leucine; SITE 17: note = Lysine is chemically modified through conjugation of the epsilon-amino group of the Lysine side chain with (2-[2-(2-Amino-ethoxy)-ethoxy]-acetyl)) [Example 901]	9.09 nM	1150 nM	1.26 nM	193 nM	0.17 nM	34 nM									
YXQGTFTSDXSKXLDKKAQXAFIEYLIEXGPSSGAPPPSGSE (Aib, 4Pal, αMeL; lipidated Lys; C-terminal amide; synthetic construct; SITE 2: note = 2-Aminoisobutyric Acid; SITE 10: note = 3-(4-Pyridyl)-L-alanine; SITE 13: note = alpha-methyl-leucine; SITE 17: note = Lysine is chemically modified through conjugation of the epsilon-amino group of the Lysine side chain with (gamma-Glu)2-CO-(CH2)16-CO2H; SITE 20:) [Example 904]	9.88 nM	1330 nM	1.94 nM	198 nM	0.194 nM	15 nM									
YXQGTFTSDFSXXLDKKAQXAFIEYLIEXGPSSGAPPPSGS (synthetic construct; SITE 2: note = 2-Aminoisobutyric Acid; SITE 12: note = L-ornithine; SITE 13: note = alpha-methyl-leucine; SITE 17: note = Lysine is chemically modified through conjugation of the epsilon-amino group of the Lysine side chain with (2-[2-(2-Amino-ethoxy)-ethoxy]-acetyl)-(gamma-Glu)) [Example 796]	5.3 nM		0.602 nM		0.098 nM		1000 nM	125 nM	17.5 nM						
YXQGTFTSDXSKXLDKKAQXAFIEYLIEGGPSSGAPPPSGS (non-natural residues; lipidated Lys AEEA-γGlu-C18 diacid; C-term amide; synthetic construct; SITE 2: note = 2-Aminoisobutyric Acid; SITE 10: note = 3-(4-Pyridyl)-L-alanine; SITE 13: note = alpha-methyl-leucine; SITE 17: note = Lysine is chemically modified through conjugation of the epsilon-amino group of the Lysine side chain with (2-[2-(2-Amino-ethoxy)-ethoxy]-acetyl)) [Example 908]	8.11 nM	980 nM	1.2 nM	174 nM	0.246 nM	26.7 nM									
YXQGTFTSDXSQXLDKKAQXAFIEYLLEAGPSSGAPPPSGX (synthetic construct; SITE 2: note = 2-Aminoisobutyric Acid; SITE 10: note = 3-(4-Pyridyl)-L-alanine; SITE 13: note = alpha-methyl-leucine; SITE 17: note = Lysine is chemically modified through conjugation of the epsilon-amino group of the Lysine side chain with (2-[2-(2-Amino-ethoxy)-ethoxy]-acetyl)) [Example 822]	11.6 nM	2100 nM	2.51 nM	322 nM	0.186 nM	18.1 nM									
YXQGTFTSDFSXXLDKKAQXAFIEYLIEXSPSSGAPPPSGS (synthetic construct; SITE 2: note = 2-Aminoisobutyric Acid; SITE 12: note = L-ornithine; SITE 13: note = alpha-methyl-leucine; SITE 17: note = Lysine is chemically modified through conjugation of the epsilon-amino group of the Lysine side chain with (2-[2-(2-Amino-ethoxy)-ethoxy]-acetyl)-(gamma-Glu)) [Example 804]	11.5 nM	2310 nM	0.915 nM	161 nM	0.0751 nM	17.6 nM									
YXQGTFTSDFSKXLDKKAQXAFIEYLIEXSPSSGAPPPSGS (synthetic construct; SITE 2: note = 2-Aminoisobutyric Acid; SITE 13: note = alpha-methyl-leucine; SITE 17: note = Lysine is chemically modified through conjugation of the epsilon-amino group of the Lysine side chain with (2-[2-(2-Amino-ethoxy)-ethoxy]-acetyl)-(gamma-Glu)-CO-(CH2) 16-CO2H; SITE 20: n) [Example 805]	3.97 nM	1210 nM	0.715 nM	146 nM	0.0875 nM	13 nM									
YXQGTFTSDFSRXLDKKAQXAFIEYLLAGGPSSGAPPPSGS (synthetic construct; SITE 2: note = 2-Aminoisobutyric Acid; SITE 13: note = alpha-methyl-leucine; SITE 17: note = Lysine is chemically modified through conjugation of the epsilon-amino group of the Lysine side chain with (2-[2-(2-Amino-ethoxy)-ethoxy]-acetyl)-(gamma-Glu)-CO-(CH2) 18-CO2H; SITE 20: n) [Example 77]	15.3 nM		1.85 nM		0.168 nM					2610 nM	339 nM	37.9 nM			
YXQGTFTSDXSQXLDKKAQXAFIEYLLEAGPSSGAPPPSGS (synthetic construct; SITE 2: note = 2-Aminoisobutyric Acid; SITE 10: note = 3-(4-Pyridyl)-L-alanine; SITE 13: note = alpha-methyl-leucine; SITE 17: note = Lysine is chemically modified through conjugation of the epsilon-amino group of the Lysine side chain with (2-[2-(2-Amino-ethoxy)-ethoxy]-acetyl)) [Example 820]	6.83 nM	1270 nM	2.78 nM	299 nM	0.121 nM	17.5 nM									
YXQGTFTSDFSQXLDKKAQXAFIEYLIAGGPSSGAPPPSGS (not fully specified; synthetic construct; SITE 2: note = 2-Aminoisobutyric Acid; SITE 13: note = alpha-methyl-leucine; SITE 17: note = Lysine is chemically modified through conjugation of the epsilon-amino group of the Lysine side chain with (gamma-Glu)2-CO-(CH2)16-CO2H; SITE 20: note = 3-(4-Pyridyl)-L-alanine; SITE 41:) [Example 876 (SEQ ID NO: 882)]													940 nM	70 nM	7.94 nM
YXQGTFTSDFSQXLDKKAQXAFIEYLIEXGPSSGAPPPSGS (not fully specified; synthetic construct; SITE 2: note = 2-Aminoisobutyric Acid; SITE 13: note = alpha-methyl-leucine; SITE 17: note = Lysine is chemically modified through conjugation of the epsilon-amino group of the Lysine side chain with (gamma-Glu)3-CO-(CH2)16-CO2H; SITE 20: note = 3-(4-Pyridyl)-L-alanine; SITE 29:) [Example 862 (SEQ ID NO: 868)]													1110 nM	201 nM	12.4 nM
YXQGTFTSDFSXXLDKKAQXAFIEYLIEXGPSSGAPPPSGS (synthetic construct; SITE 2: note = 2-Aminoisobutyric Acid; SITE 12: note = (S)-2,3-diaminopropanoic acid; SITE 13: note = alpha-methyl-leucine; SITE 17: note = Lysine is chemically modified through conjugation of the epsilon-amino group of the Lysine side chain with (2-[2-(2-Amino-ethoxy)-ethoxy]-a)) [Example 800]	21 nM	2500 nM	0.486 nM	164 nM	0.283 nM	40.2 nM									
YXQGTFTSDFSRXLDKKAQXAFIEYLIEXSPSSGAPPPSGS (synthetic construct; SITE 2: note = 2-Aminoisobutyric Acid; SITE 13: note = alpha-methyl-leucine; SITE 17: note = Lysine is chemically modified through conjugation of the epsilon-amino group of the Lysine side chain with (2-[2-(2-Amino-ethoxy)-ethoxy]-acetyl)-(gamma-Glu)-CO-(CH2) 16-CO2H; SITE 20: n) [Example 806]	8.25 nM	2760 nM	0.706 nM	128 nM	0.124 nM	15.1 nM									
YXQGTFTSDXSKXLDKKAQXAFIEYLIEXGPSSGAPPPSGS (non-natural residues; (γGlu)2-C18 diacid on Lys; C-terminal amide; synthetic construct; SITE 2: note = 2-Aminoisobutyric Acid; SITE 10: note = 3-(4-Pyridyl)-L-alanine; SITE 13: note = alpha-methyl-leucine; SITE 17: note = Lysine is chemically modified through conjugation of the epsilon-amino group of the Lysine side chain with (gamma-Glu)2-CO-(CH2)16-CO2H; SITE 20:) [Example 907]	5.79 nM	1210 nM	1.15 nM	123 nM	0.103 nM	8.86 nM									
